Laboratory results: IntAct's records for PubMed 25619834

B1: Influenza virus NS1A-binding protein (Homo sapiens), Q9Y6Y0 (parent)
chain: MIPNGYLMFEDENFIESSVAKLNALRKSGQFCDVRLQVCGHEMLAHRAVLACCSPYLFEIFNSDSDPHGISHVKFDDLNPEAVEVLLNYAYTAQLKADKELVKDVYSAAKKLKMDRVKQVCGDYLLSRMDVTSCISYRNFASCMGDSRLLNKVDAYIQEHLLQISEEEEFLKLPRLKLEVMLEDNVCLPSNGKLYTKVINWVQRSIWENGDSLEELMEEVQTLYYSADHKLLDGNLLDGQAEVFGSDDDHIQFVQKKPPRENGHKQISSSSTGCLSSPNATVQSPKHEWKIVASEKTSNNTYLCLAVLDGIFCVIFLHGRNSPQSSPTSTPKLSKSLSFEMQQDELIEKPMSPMQYARSGLGTAEMNGKLIAAGGYNREECLRTVECYNPHTDHWSFLAPMRTPRARFQMAVLMGQLYVVGGSNGHSDDLSCGEMYDSNIDDWIPVPELRTNRCNAGVCALNGKLYIVGGSDPYGQKGLKNCDVFDPVTKLWTSCAPLNIRRHQSAVCELGGYLYIIGGAESWNCLNTVERYNPENNTWTLIAPMNVARRGAGVAVLNGKLFVCGGFDGSHAISCVEMYDPTRNEWKMMGNMTSPRSNAGIATVGNTIYAVGGFDGNEFLNTVEVYNLESNEWSPYTKIFQF

Variants of: B1
Conditions: with cul3_human CUL3, Q13618

Row | Variant | effect of a mutation on the interaction
1 | M114L | causing an interaction
2 | F75L | causing an interaction
